Test results: the DeepSol protein solubility set

assay: soluble on expression in E. coli; label from the status in PepcDB or PDB records

Sequence	soluble on expression in E. coli
KTSDANETEDHLESLICKVGEKSACSLESNLEGLAGVLEADLPNYKSKILRLLCTVARLLPEKLTIYTTLVGLLNARNYNFGGEFVEAMIRQLKESLKANNYNEAVYLVRFLSDLVNCHVIAAPSMVAMFENFVSVTQEEDVPQVRRDWYVYAFLSSLPWVGKELYEKKDAEMDRIFANTESYLKRRQKTHVPMLQVWTADKPHPQEEYLDCLWAQIQKLKKDRWQERHILRPYLAFDSILCEALQHNLPPFTPPPHTEDSVYPMPRVIFRMFDYTDDPEGPVMPGSHSVERFVIEENLHCIIKSHWKERKTCAAQLVSYPGKNKIPLNYHIVEVIFAELFQLPAPPHIDVMYTTLLIELCKLQPGSLPQVLAQATEMLYMRLDTMNTTCVDRFINWFSHHLSNFQFRWSWEDWSDCLSQDPESPKPKFVREVLEKCMRLSYHQRILDIVPPTFSALCPSNPTCIYKYGDESSNSLPGHSVALCLAVAFKSKATNDEIFSILKDVPNPNQDDDDDEGFSFNPLKIEVFVQTLLHLAAKSFSHSFSALAKFHEVFKTLAESDEGKLHVLRVMFEVWRNHPQMIAVLVDKMIRTQIVDCAAVANWIFSSELSRDFTRLFVWEILHSTIRKMNKHVGAQSEQKNLFLVIFQRFIMILTEHLVRCETDGTSVLTPWYKNCIERLQQIFLQHHQIIQQYMVTLENLLFTAELDPHILAVFQQFCALQA	soluble
MGSDKIHHHHHHMAKKTAVVDLGSNSIRMVIFEKTSRYGFYTTCEYKRKVRLGENAYNNGKILQEEAMQRAEDALAFFKQCALKHKCKKIFIVGTSALRDAPNSKNFIKRIKDNLSLNIRCIDGKSESYLGGLAALNLLSPFKDGTTLDIGGGSSELCLIKNNRIISCISLDIGTVRLKELFYDTGKMDSLEEFIKPILEQIPKEFCNQNLIAIGGSLRAISNSIMQKNSYPLKNLHDFRYMLDEEKGHILKIFNSNLDSLINFGIKKDRFDTIKEGIFIFLKIAEKIKAKQVITSGVGIREGVYLQDLLRPKITFPPNFNPSLKCLQDKFLQSKQKNKTPHFALQIFTTLKNLHKLNDNYKHTLLNAAKLCHIGEYLNFYFANEHSAHFVLGGLNYGFSHKEKALIASIIKLNGKKVNPYNLEPYKQLLPNIHTISWLNFILCLAKTLSANEDKIDFAFANNTLYIYQENKILNLPKDELKKIAKPATIALAINQKI	not soluble
MTAPLPLDWTFPYVSQRMPALGENMVCTEQPLANQAAMRMLAAGGNAVDAAIAAAITMTVVGPCMNGIGGDLFAIIWDGRQLHGLNASGRAPQAWTREYFSRHDAMPARGWDAVTVPGAVSGWVALSRKFGKLDFARLFEPALHYARHGFLVTPITARQWADQAEPIMQGPGFRDAFAPNGRTPQPGERFICPGQADTLQDIADTHGESFYRGALAARIAAFARETGGALTKADLAAHQADWVDPIGAQYGELTLHEIGPSGQGIGALMALGMLDGLSGKLGQPDSTDFYHYQIEAMKLAFADINRYVADPASMREVSAEMLLDRAYLATRAGAIDPAEARYPGPGKPHNGGTTYLTAADADGMMVSLIQSNFKGFGSGVVVPGTGIALHNRGWGFNLIEGHPNEVGPGKRPFHTIIPGFLMRDGEPLMSFGVMGGSLQAQGHVQVTVRTAAGQNPQAIVDAPRWRILEDNRTVMVEWNFPDAAVAGLRERGHAVTVAPRFSDEFGGSQAIMRIEGGYLGASDHRKDGQASALLEHHHHHH	not soluble
MGSDKIHHHHHHMSHTEVKLKIPFGNKLLDAVCLVPNKSLTYGIILTHGASGDMNLPHLMSLASHLASHGFFCLRFTCKGLNIVHRIKAYKSVLNYLKTSGEYKLAGVFLGGRSMGSRAAASVMCHIEPDDGDDFVRGLICISYPLHHPKQQHKLRDEDLFRLKEPVLFVSGSADEMCEKNLLEKVAQKMQAPHKIHWIEKANHSMAVKGRSTNDVFKEINTQILFWIQEITEMDKKCH	not soluble
MKEVKKEYLTLDEVKILAQTPCEHDVLKRASLFSCLTGLRISDILNLRWEDFTLAPDQGYCIRIRTQKTSTEATLPISYEAYELCGEPSSGKVFKGLQRSMINYPLKKWIKQAGIMKHITFHCFRHSYAVIQISLGTDIYTVSKMLTHKNVSTTQIYADLEHHHHHH	not soluble
MGSDKIHHHHHHMNSTMQVLVIGGTGTLGRQIAKNAIDAGHKVRCMVRKPKAASFLQEWGCELTRGNLLNKEDIEYALDGIDAVIDAATSRPDDPRSVYETDWDGKLNLFNACEEKNVKRVVFLSLLAAEKYREIPLMDIKYCTEELLVSSSLDYTILQGVAFMQGAIGQFAIPILNNEPVWISGNPTDIAYMNTQDIARFAVAALDRPQTIKGRFPIVGPKAWSAKGLVDLCEKFSEKRARVLKVSPTIISIAQSVVSFFEPTLNVAERLSFSELSGSGGKLDAPMEDTYTAFGLNPADTTTMEGYIKEYYGVILKRLKDIGVDLDIEEKKKFPI	not soluble
MGSDKIHHHHHHMTEWVPVIYGIGLDAAGRCQHYHLETDIAALWCRRCQHYYACYRCHDTLCQHTFVASAPTDLAVMCGACRYRMTVDRYHEGQCPHCHRPFNPRCRLHDQVYFEK	not soluble
GPGSMAVGASSRTAQRTPARERRQIIPPDVSGQFRVTTFLSLDAFALQHFTLDDHSATGKEGRMFRAFGVTTWAPRIWDEGVSGVFLDLRGAYNYWKRADDQAQLVFDSLVAWIGALEAERDPTDRFMNLGRILLQAFRMQLMMASDPGIPVFNILARPCTAVHEADTFARTIQIPLERRGTQISLRCQLCHVTCP	not soluble
GSPALDTGTTEEDRLKIDVIDWLVFDPAQRAEALKQGNAIMRKFLASKKHEAAKEVFVKIPQDSIAEIYNQCEEQGMESPLPAEDDNAIREHLCIRAYLEAHETFNEWFKHMNSVPQKPALIPQPTFTEKVAHEHKEKKYEMDFGIWKGHLDALTADVKEKMYNVLLFVDGGWMVDVREDAKEDHERTHQMVLLRKLCLPMLCFLLHTILHSTGQYQECLQLADMVSSERHKLYLVFSKEELRKLLQKLRESSLMLLDQGLDPLGYEIQLSGRIVTD	soluble
MGSDKIHHHHHHMAKCNAVAGFNALNGVQLNLFTTDELKAIHYATMEVLMDPGIQVSDPEARQIFKENGCEVNEQTNVVKIPEYLVRRALQLAPSRFVLWGRDKKYNTVQEAGGKVHWTCFGTGVKMCKYQEGKYVTVDSVEQDIADIAKLCDWAENIDYFSLPVSARDIAGQGAQDVHETFTPLTNTAKHFHHIDPVGENVEYYRDIVNAYYGGDEEEARKKPIFSMLLCPTSPLELSVNACQVIIKGARFGMPVNVLSMAMSGGSSPVYLAGTLVTHNAEVLAGITLAQLTVPGAKVWYGSSTTTFDLKKGTAPVGSPELGLISASVAKLAQFYGLPAFVAGT	not soluble
MELLSIQNLTKVYKVPAGFLRKKNFFALKEVSLSIKQGDFLAIVGESGSGKSTLGKIILRLEKPTKGKVSFKGKDIFSMGKEYTRKVSAVFQDPRSSLNPRMKVEEILEEPLIVHRVKGRKERVLKVLQRVRLSEELLEKRPLQISGGQAQRVAIARALILEPELIVADEPTASLDVSVQEEILELFKELNSKGISFFFVTHDIRVVEKVANMVGVIYAGILMELGKKEEVLKNPLHPYTKFLLENVPVRHPKDRKPLKYLQEEEVSIPEEGCPFYPRCPEAMEECKKFIRRSEVNGRLLACNLY	soluble
SDEVYLYSDATTSKIARTVTQKLGFSKASSSGTRLHRGYVEEATLEDKPSQTSHIVFVVHGIGQKMDQGRIIKNTAMMREAARKMEEKHFSNHATHVEFLPVEWRSKLTLDGDTVDSITPDKVRGLRDMLNSSAMDIMYYTSPLYRDELVKGLQQELNRLYSLFCSRNPDFEEKGGKVSIVSHSLGCVITYDIMMGWNPGGLYEQLLQKEEELPDERWMSYEERHLLDELYITKRRLREIEDRLHGLKAPSISQTPALKFKVENFFCMGSPLAVFLALRGIRPGNSGSQDHILPREICNRLLNIFHPTDPVAYRLEPLILKHYSNISPVQIHWYNTSNPLPYEHMKPNFLNPAKEPTSVSDSENIAAIPSPVTSPVLSRRHYGESITNIGKASILGAASIGKGLGGMLFSRFGRSSASQPSEPSKDSLEDDKKPSASPSTTTVATQTLPHSGSGFLDSAYFRLQESFFYLPQLLFPENVMQSKDDSLVELEHRIDFELREGLVESRYWSAVTSHTAYWSSLDVALFLLTFMYKHEHDTEAKPSLGSL	soluble
